Reference: paper PMC11633101 (2024)

Biological target: BVDV E2 protein with 6×his tag, purified from 293F cells (bovine viral diarrhea virus (BVDV), UniProt P19711 693-1066)
Test: SPR

B1: bovine CD46 protein (MedChemExpress) (receptor)
chain: CDDPPRFVSMKPQGTLKPSYSPGEQIVYECHLGFQPVTPGQVLALVCQDNNTWSSLQEGCKKRRCPTLADPTNGQVILVNGSTEFGSEVHYVCNNGYYLLGTNISYCEVSSGTGVNWSDNPPTCEKILCQPPPEIQNGKYTNSHKDVFEYNEVVTYSCDPSNGPDEYSLVGESKLTCIGNGEWSSQPPQCKVVKCVYPAIEHGTIVSGFGPKYYYKATVVLKCNEGFNLYGNSVVVCGENSTWEPELPKCIKGHPPRPTDASPPNGAEG
Binder B1 has a Kd of 75.1 nM.
